{"source": "paper PMC8907715", "about": "“Selection and identification of high‐affinity aptamer of Kunitz trypsin inhibitor and their application in rapid and specific detection”", "data": [{"biological_target": "T1, Kunitz trypsin inhibitor (KTI) (UniProt P01070 25-205)", "T1 sequence": "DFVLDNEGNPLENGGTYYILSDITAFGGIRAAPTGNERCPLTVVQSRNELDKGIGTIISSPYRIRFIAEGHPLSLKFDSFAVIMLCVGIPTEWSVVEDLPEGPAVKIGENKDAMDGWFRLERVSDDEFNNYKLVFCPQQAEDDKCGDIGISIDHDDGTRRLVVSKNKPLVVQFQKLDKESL", "test": "GO fluorescence assay; text gives 52.6 ± 11.4; FAM-aptamer 0-600 nM with GO 60 min, then 1 uM KTI 2 h at room temperature in the dark; assay buffer, salt and pH not stated (oligos dissolved in TE pH 8.0)", "settings": "protein: commercial; label: 5'-FAM", "units": {"Kd": "µM"}, "values": [{"molecule": "CTTCGTATCCTGTGCTGCAGTTGTTTTTAAGTGCTGGGAG (ssDNA)", "note": "[Akti-5]", "Kd": "0.0525 ± 0.0114"}]}, {"biological_target": "T2, Kunitz trypsin inhibitor (KTI) (UniProt P01070)", "T2 sequence": "T1 sequence", "test": "GO fluorescence assay", "settings": "FAM-aptamer 0-600 nM with GO 60 min, then 1 uM KTI 2 h at room temperature in the dark; assay buffer, salt and pH not stated (oligos dissolved in TE pH 8.0)", "units": {"Kd": "µM"}, "values": [{"molecule": "TGTACCGCCCACCTGCCGCTAACGGCGGTGCTGCGGTGCG [Akti-28]", "Kd": 0.164}, {"molecule": "CTGGTGTTTTCTTTACGCATAACAAGGCCCCTGAGAGGCT [Akti-9]", "Kd": 0.134}, {"molecule": "TCTGGCTTCTGATCTGATGTTTTTACTATCGGTATTTCTA [Akti-15]", "Kd": 0.0679}, {"molecule": "GGTCGTGAGGCCCACCGCTGAGCTCTAGTATCGCTCGGCG [Akti-11]", "Kd": 0.116}, {"molecule": "CCAACCTGTGGCATTTGGTAACTTGATCTTACGGTGTTCG [Akti-10]", "Kd": 0.0226}]}]}
